For one molecule, Kd results are on record in US20250222126A1 (ARIZONA BOARD OF REGENTS ON BEHALF OF ARIZONA STATE …, published 2025).

This experiment deals with spike wt.

For orientation: Kd means the concentration at which binding is half-saturated.

B1: Tri-pdbody (designed binder)
LCB1 mini-binder coupled to a DNA handle that is hybridised to an arm of a 3-helix-bundle DNA nanostructure: DKEWILQKIYEIMRLLDELGHAEASMRVSDLIYEFMKKGDERLLEEAERLLEEVER
notes: also called 3-Arm; 3arm
The molecule B1 showed a dissociation constant (Kd) of 0.132 nM. This lies in the sub-nanomolar range.
